Assay results reported in paper PMC9709061, “HSP90-CDC37-PP5 forms a structural platform for kinase dephosphorylation” (Nature Communications, 2022).

Key:
BRAF^V600E = biological target: T1, BRAF^V600E (human, UniProt P15056 1-766, V600E, phosphorylated as purified: Ser151, Ser339, Ser365, Thr401, Ser429, Ser432, Ser446, Ser614, Ser675, Ser729, Ser750, Thr753 (mass spectrometry; pSer729 also by western blot)); assay: cryo-EM structure; HSP90–CDC37–BRAF^V600E complex incubated with PP5 D274N, purified by SEC, cross-linked with 1 mM BS3; one sample gave three classes: HCK (3.4 Å), HCK-P open (4.2 Å), HCK-P closed (3.9 Å); PP5 modelled by rigid-body docking; conditions: both partners purified
T1 construct: human BRAF, full length (84 kDa), oncogenic V600E mutant; A 3C site lies between protein and tag; no cleavage step is described; also called kinase client; not shown: 2xStrep, N-terminal, kept
T1 sequence (P15056 whole entry V600E): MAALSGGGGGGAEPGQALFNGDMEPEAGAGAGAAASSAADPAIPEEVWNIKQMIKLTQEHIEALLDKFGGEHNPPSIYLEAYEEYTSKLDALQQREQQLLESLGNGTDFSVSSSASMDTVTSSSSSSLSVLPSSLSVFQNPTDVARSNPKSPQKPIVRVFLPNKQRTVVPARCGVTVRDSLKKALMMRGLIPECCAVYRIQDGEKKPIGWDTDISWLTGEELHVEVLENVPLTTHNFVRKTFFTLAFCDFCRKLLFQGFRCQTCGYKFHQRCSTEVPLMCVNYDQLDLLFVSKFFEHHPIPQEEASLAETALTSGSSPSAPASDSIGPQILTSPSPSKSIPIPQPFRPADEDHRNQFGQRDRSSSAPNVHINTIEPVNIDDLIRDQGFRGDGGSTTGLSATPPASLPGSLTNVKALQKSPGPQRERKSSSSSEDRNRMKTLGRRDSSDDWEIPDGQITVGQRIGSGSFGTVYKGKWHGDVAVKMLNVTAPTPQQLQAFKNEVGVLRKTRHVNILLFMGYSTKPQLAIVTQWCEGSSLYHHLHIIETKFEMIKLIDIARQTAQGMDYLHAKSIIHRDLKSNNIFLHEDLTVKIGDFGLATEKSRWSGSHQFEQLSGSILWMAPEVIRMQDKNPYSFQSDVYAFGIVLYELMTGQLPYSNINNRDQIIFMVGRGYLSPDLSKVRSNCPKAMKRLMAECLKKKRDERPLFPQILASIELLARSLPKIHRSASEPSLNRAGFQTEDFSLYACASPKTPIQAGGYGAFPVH

HSP90β = biological target: T2, HSP90β (human, UniProt P08238 1-724, phosphorylation at Ser226 and Ser255 found by mass spectrometry); assay: as above; conditions: both partners purified
T2 construct: human HSP90β, full length; A 3C protease site lies between protein and tag; no cleavage step is described; Captured on Talon resin during the co-purification; source: co-purified (Talon, Streptactin, Superdex S200); not shown: His8, N-terminal, kept
T2 sequence (P08238 whole entry): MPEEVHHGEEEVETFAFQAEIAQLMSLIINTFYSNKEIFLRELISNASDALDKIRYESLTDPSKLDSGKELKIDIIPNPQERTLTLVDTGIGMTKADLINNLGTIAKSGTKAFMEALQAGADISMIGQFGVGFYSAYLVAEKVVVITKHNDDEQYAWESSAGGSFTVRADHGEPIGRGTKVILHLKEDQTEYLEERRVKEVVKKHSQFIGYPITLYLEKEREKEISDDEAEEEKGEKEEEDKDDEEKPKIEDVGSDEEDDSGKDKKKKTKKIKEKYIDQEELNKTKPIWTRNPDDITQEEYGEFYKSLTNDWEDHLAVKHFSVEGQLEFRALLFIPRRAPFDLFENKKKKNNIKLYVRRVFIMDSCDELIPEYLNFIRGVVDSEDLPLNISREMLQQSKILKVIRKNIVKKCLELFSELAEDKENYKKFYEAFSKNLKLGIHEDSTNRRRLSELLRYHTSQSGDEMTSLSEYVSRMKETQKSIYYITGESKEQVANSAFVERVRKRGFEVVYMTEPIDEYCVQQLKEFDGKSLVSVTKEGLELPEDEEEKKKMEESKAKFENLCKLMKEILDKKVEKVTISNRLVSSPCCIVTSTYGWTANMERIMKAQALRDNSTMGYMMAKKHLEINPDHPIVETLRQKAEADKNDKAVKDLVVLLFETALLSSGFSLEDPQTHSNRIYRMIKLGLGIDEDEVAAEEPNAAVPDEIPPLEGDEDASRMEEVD

binding result (BRAF^V600E): binds
binding result (HSP90β): binds
B1: PP5 D274N (enzyme, human, UniProt P53041 16-499, looked up)
chain: RDEPPADGALKRAEELKTQANDYFKAKDYENAIKFYSQAIELNPSNAIYYGNRSLAYLRTECYGYALGDATRAIELDKKYIKGYYRRAASNMALGKFRAALRDYETVVKVKPHDKDAKMKYQECNKIVKQKAFERAIAGDEHKRSVVDSLDIESMTIEDEYSGPKLEDGKVTISFMKELMQWYKDQKKLHRKCAYQILVQVKEVLSKLSTLVETTLKETEKITVCGDTHGQFYDLLNIFELNGLPSETNPYIFNGDFVNRGSFSVEVILTLFGFKLLYPDHFHLLRGNHETDNMNQIYGFEGEVKAKYTAQMYELFSEVFEWLPLAQCINGKVLIMHGGLFSEDGVTLDDIRKIERNRQPPDSGPMCDLLWSDPQPQNGRSISKRGVSCQFGPDVTKAFLEENNLDYIIRSHEVKAEGYEVAHGGRCVTVFSAPNYCDQMGNKASYIHLQGSDLRPQFHQFTAVPHPNVKPMAYANTLLQLGMM
notes: human PP5 (serine/threonine protein phosphatase 5), residues 16-499, D274N; also called catalytically dead PP5
